Test results from the supplement of paper PMC10567573.
± gives the standard deviation.

Assay: protein stability index of a GFP-peptide fusion (GPS, HEK-293T) (PSI 1-6); higher = more stable
Details: c terminus: a fixed tail appended
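Note: 24-mer peptide tiles fused after GFP, lentivirally expressed, FACS-sorted into six equal bins by GFP/DsRed ratio, decoded by Illumina sequencing, PSI is the read-weighted mean bin number.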

| Sequence | protein stability index (treatment: DMSO) | protein stability index (treatment: MLN4924 1 uM, 8 h) |
| --- | --- | --- |
| VLLIKDRTSKSRGFAFITFENPAD [RBMY1A1] | 2.83 ± 0.88 | 3.06 ± 1.5 |
| EECRMSGEFPSPVSISIISSTSGG [KRT71] | 3.59 ± 0.25 | 3.6 ± 0.4 |
| TGIVNHTHSRMGSIMSTGIVQGSS [CARM1] | 3.12 ± 0.2 | 3.5 ± 0.63 |
| NVCDDYDVTCNEFFFDRNPGAFGT [KCNG1] | 3.44 ± 0.25 | 3.65 ± 0.12 |
| TAVAQAPPAVASSSLFDLSVLKLH [SERTAD1] | 3.17 ± 0.061 | 3.24 ± 0.2 |
| NTSIRVADFGSATFDHEHHTTIVA [CLK3] | 3.52 ± 0.45 | 3.27 ± 0.28 |
| TTENENTKFEVRLLRDPADASEAH [CHGB] | 5.18 ± 0.21 | 5.24 ± 0.14 |
| LQNFSSSWSDGMAFCALVHSFFPD [SMTNL2] | 2.6 ± 0.39 | 2.42 ± 0.44 |
| QARHQLVLTAVDGGTPARSGTTLI [PCDHGC5] | 3.18 ± 0.083 | 3.15 ± 0.38 |
| TGFPQYAQLYEDFLFPIDISLVKR [DLC1] | 2.37 ± 0.24 | 2.35 ± 0.54 |
| LALMIQSSGNTVLLLILCMQHSFP [TMEM192] | 2.9 ± 0.073 | 3.1 ± 0.48 |
| DINNNFPDLNTLLWEAEDRQNVPR [CPXM2] | 3.78 ± 0.35 | 4.15 ± 0.2 |
| LQMKLEKLREKERKKEAKRKISSL [FAM50A] | 3.71 ± 0.45 | 3.98 ± 0.53 |
| VNLEEIPGEGLLISWAFTDRPDLS [C2CD2L] | 2.14 ± 0.15 | 2.08 ± 0.23 |
| ALADVEVKYIVERTMLDFPQHVSS [NLN] | 2.38 ± 0.36 | 2.39 ± 0.16 |
| RMTSAAHYYPKLMSIMGNVLRFLP [GFOD1] | 2.32 ± 0.39 | 2.15 ± 0.36 |
| NFRDLVRDLEKQKEEVRAALEQRE [TRIM29] | 4.54 ± 0.11 | 4.43 ± 0.21 |
| NETKSQAFVSNSPKLFCPKNRSFD [PLD5] | 4.21 ± 0.23 | 3.86 ± 0.54 |
| ASCCIDPREDGASVNDQCGFGVLR [TSPAN10] | 3.44 ± 0.14 | 3.83 ± 0.31 |
| EDSIFGDPKKLLTQYFVQENYLEY [MAGEA6] | 2.88 ± 0.34 | 2.62 ± 0.11 |
| ILEVLRSSPMVQVDEKGEKVRPSH [LARP4] | 3.61 ± 0.27 | 3.71 ± 0.12 |
| YFSQVPVLASFILDDGEIDEIRWK [IQUB] | 2.25 ± 0.72 | 2.22 ± 0.28 |

| Sequence | protein stability index (treatment: DMSO) | protein stability index (treatment: MLN4924 1 uM, 8 h) |
| --- | --- | --- |
| CLTTGDVIAINYNEKIYELRVMET [UFD1] | 2.25 ± 0.35 | 2.04 ± 0.27 |
| TRWYRAPELLVGDTQYGSSVDIWA [CDKL4] | 1.97 ± 0.59 | 2.26 ± 0.39 |
| RSLSERTVDKCFGRKKYDIDPRNG [SPATS1] | 4.39 ± 0.24 | 4.73 ± 0.33 |
| YRLGYFDDALEDFKKVLDLNPGFQ [TTC32] | 2.59 ± 0.2 | 2.41 ± 0.41 |
| KHSTIFDVGENLTVPDEFTVEERQ [SLC25A25] | 5.07 ± 0.22 | 4.98 ± 0.22 |
| FLLLYLFTLGTNAIIISTIVLDRA [OR10K2] | 3.39 ± 0.28 | 3.23 ± 0.53 |
| GCLGHGSLTDISQPTIVEALLGYE [NEK8] | 3.1 ± 0.11 | 3.18 ± 0.4 |
| FRRAPSWRKRFRPREHHGRGGMLS [PPFIA4] | 3.11 ± 0.27 | 3.99 ± 0.078 |
| KSFILDFMLRYLYSQKESGHSNWL [ATL3] | 2.88 ± 0.33 | 3.07 ± 0.48 |
| EPERQVQHEESTEGEADHSGYAGE [UFD1] | 5.61 ± 0.28 | 5.7 ± 0.24 |
| VLQHVRLPLLSPKFLVGTVGSDPL [KLHL20] | 2.22 ± 0.28 | 2.13 ± 0.1 |
| ATFEKILESELLRGTQYSSLDSLD [PSD2] | 2.25 ± 0.23 | 2.41 ± 0.14 |
| TFDTGCLTLSQYILLDPILMFFIM [POMT2] | 2.35 ± 0.52 | 2.33 ± 0.36 |
| CSHNLCQACARNILVQTPESESPQ [TRIM9] | 3.57 ± 0.33 | 3.85 ± 0.33 |
| MDRSLVQDAPLSDCTETIEGLELT [ADD1] | 5.27 ± 0.28 | 5.32 ± 0.19 |
| IHIIDFGLAKEYIDPETKKHIPYR [CSNK1G3] | 2.1 ± 0.36 | 2.33 ± 0.17 |
| AVVAAGGGSSGQVTSNGSIGRDPP [CLPTM1] | 4.75 ± 0.13 | 4.88 ± 0.26 |
| CHQMGVVHRDLKPENLLLASKCKG [CAMK2B] | 3.7 ± 0.16 | 3.84 ± 0.39 |
| HPDPAPFCADNPSELPPPMERTGG [DVL3] | 3.41 ± 0.55 | 4.17 ± 0.49 |
| TEEVKFYQLGEEALLKFREDEGFV [KCNA4] | 4.16 ± 0.3 | 4.3 ± 0.24 |
| SRSNGSSPEARDARSPSGPSGSLE [TRIM29] | 5.16 ± 0.17 | 5.29 ± 0.3 |
| WIKEEAAERYLYFPNWAMALLITL [SLC6A17] | 2.67 ± 0.79 | 2.81 ± 0.57 |
